According to the supplement of paper PMC11246515:
± gives the standard deviation of the averaged measurements.

Assay: total protein half-life in vivo (active degradation + dilution); higher = more stable protein
[1] = E. coli NCM3722 delta-clpP delta-lon delta-hslV, growth: N-lim chemostat, doubling time 6 h
[2] = E. coli NCM3722 delta-clpP, growth: N-lim chemostat, doubling time 6 h
[3] = E. coli NCM3722 delta-smpB, growth: N-lim chemostat, doubling time 6 h
[4] = wild type E. coli NCM3722, growth: C-lim chemostat, doubling time 6 h
[5] = wild type E. coli NCM3722, growth: C-lim chemostat, doubling time 12 h
[6] = wild type E. coli NCM3722, growth: N-lim chemostat, doubling time 6 h
[7] = wild type E. coli NCM3722, growth: N-lim chemostat, doubling time 12 h
[8] = wild type E. coli NCM3722, growth: P-lim chemostat, doubling time 6 h
[9] = wild type E. coli NCM3722, growth: P-lim chemostat, doubling time 12 h
[10] = E. coli NCM3722 delta-hslV, growth: N-lim chemostat, doubling time 6 h
[11] = wild type E. coli NCM3722, growth: C-lim chemostat, doubling time 3 h
[12] = E. coli NCM3722 delta-lon, growth: N-lim chemostat, doubling time 6 h

| Sequence | total protein half-life in vivo [1] | total protein half-life in vivo [2] | total protein half-life in vivo [3] | total protein half-life in vivo [4] | total protein half-life in vivo [5] | total protein half-life in vivo [6] | total protein half-life in vivo [7] | total protein half-life in vivo [8] | total protein half-life in vivo [9] | total protein half-life in vivo [10] | total protein half-life in vivo [11] | total protein half-life in vivo [12] |
| --- | --- | --- | --- | --- | --- | --- | --- | --- | --- | --- | --- | --- |
| MKIFSVRQTVLPALLVLSPVVFAADEQTMIVSAAPQVVSELDTPAAVSVVDGEEMRLATPRINLSESLTGVPGLQVQNRQNYAQDLQLSIRGFGSRSTYGIRGIRLYVDGIPATMPDGQGQTSNIDLSSVQNVEVLRGPFSALYGNASGGVMNVTTQTGQQPPTIEASSYYGSFGSWRYGLKATGATGDGTQPGDVDYTVSTTRFTTHGYRDHSGAQKNLANAKLGVRIDEASKLSLIFNSVDIKADDPGGLTKAEWKANPQQAPRAEQYDTRKTIKQTQAGLRYERSLSSRDDMSVMMYAGERETTQYQSIPMAPQLNPSHAGGVITLQRHYQGIDSRWTHRGELGVPVTFTTGLNYENMSENRKGYNNFRLNSGMPEYGQKGELRRDERNLMWNIDPYLQTQWQLSEKLSLDAGVRYSSVWFDSNDHYVTPGNGDDSGDASYHKWLPAGSLKYAMTDAWNIYLAAGRGFETPTINELSYRADGQSGMNLGLKPSTNDTIEIGSKTRIGDGLLSLALFQTDTDDEIVVDSSSGGRTTYKNAGKTRRQGAELAWDQRFAGDFRVNASWTWLDATYRSNVCNEQDCNGNRMPGIARNMGFASIGYVPEDGWYAGTEARYMGDIMADDENTAKAPSYTLVGLFTGYKYNYHNLTVDLFGRVDNLFDKEYVGSVIVNESNGRYYEPSPGRNYGVGMNIAWRFE | 5.463 ± 0.043 h | 6.48 ± 0.072 h | 5.98 ± 0.44 h | 6.21 ± 0.33 h | 13.6 ± 1 h | 6.02 ± 0.5 h | 12.9 ± 0.56 h | 5.34 ± 0.089 h | > 16 h | – | – | – |
| MKIGIIGAMEEEVTLLRDKIENRQTISLGGCEIYTGQLNGTEVALLKSGIGKVAAALGATLLLEHCKPDVIINTGSAGGLAPTLKVGDIVVSDEARYHDADVTAFGYEYGQLPGCPAGFKADDKLIAAAEACIAELNLNAVRGLIVSGDAFINGSVGLAKIRHNFPQAIAVEMEATAIAHVCHNFNVPFVVVRAISDVADQQSHLSFDEFLAVAAKQSSLMVESLVQKLAHG [P0AF12] | 4.9 ± 0.49 h | 4.39 ± 0.069 h | 5.43 ± 0.68 h | 6.36 ± 0.19 h | 12.6 ± 1.4 h | 4.85 ± 0.48 h | 8.24 ± 0.78 h | 5.73 ± 0.097 h | 12.1 ± 0.39 h | 4.42 ± 0.2 h | 3.27 ± 0.28 h | – |
| MKIGTVAGTNDSTTTIATNDMVQEHVTNFTKELFGYIANGIGDDISSIARTMLGEVVEKIDDWQIERFQQSIQDDKISFTIQTDHSEKYSMLSGMRAHILRRNNNYQFIVTINSKNYGCSLDNTDINWCSIVYLLNNMTVNDNANDVAVTESYKPIWNWKISQYNVSDIKFETMIKPQFADRIYFSNCLPVDPTSTRPTYFGDTDGSVGAVLFALFATGHLGIMAEGENFLSQLLNIEDEVLNVLLRENFNEQLNTNVNTIISILNRRDIILESLQPYLVINKDAVTPCTFLGDQTGDRFSNICGDQFIIDLLKRIMSINENVHVLAGNHETNCNGNYMQNFTRMKPLDEDTYSGIKDYPVCFYDPKYKIMANHHGITFDDQRKRYIIGPITVSIDEMTNALDPVELAAIINKKHHAIINGKKFKTSRAISCRSFNRYFSVSTDYRPKLEALLACSQMLGINQVVAHNGNGGRERIGETGTVLGLNARDSKHAGRMFSMHNCQINPGAGPEITTPWKSYQHEKNRNGLMPLIRRRTMLQL | 5.59 ± 0.23 h | – | – | – | – | – | – | – | – | – | – | – |
| MKIHTTEALMKAEISRRSLMKTSALGSLALASSAFTLPFSQMVRAAEAPVEEKAVWSSCTVNCGSRCLLRLHVKDDTVYWVESDTTGDDVYGNHQVRACLRGRSIRRRMNHPDRLKYPMKRVGKRGEGKFERISWDEALDTISDNLRRILKDYGNEAVHVLYGTGVDGGNITNSNVPYRLMNSCGGFLSRYGSYSTAQISAAMSYMFGANDGNSPDDIANTKLVVMFGNNPAETRMSGGGVTYYVEQARERSNARMIVIDPRYNDTAAGREDEWLPIRPGTDGALACAIAWVLITENMVDQPFLDKYCVGYDEKTLPANAPRNAHYKAYILGEGPDGIAKTPEWAAKITSIPAEKIIQLAREIGSAKPAYICQGWGPQRHSNGEQTSRAIAMLSVLTGNVGINGGNSGVREGSWDLGVEWFPMLENPVKTQISVFTWTDAIDHGTEMTATRDGVRGKEKLDVPIKFLWCYASNTLINQHGDINHTHEVLQDDSKCEMIVGIDHFMTASAKYCDILLPDLMPTEQEDLISHESAGNMGYVILAQPATSAKFERKPIYWMLSEVAKRLGPDVYQTFTEGRSQHEWIKYLHAKTKERNPEMPDYEEMKTTGIFKKKCPEEHYVAFRAFREDPQANPLKTPSGKIEIYSERLAKIADTWELKKDEIIHPLPAYTPGFDGWDDPLRKTYPLQLTGFHYKARTHSSYGNIDVLQQACPQEVWINPIDAQARGIRHGDTVRVFNNNGEMLIAAKVTPRILPGVTAIGQGAWLKADMFGDRVDHGGSINILTSHRPSPLAKGNPSHSNLVQIEKV | 6.47 ± 2.1 h | – | 4.94 h | 4.9 h | 13.9 h | – | 3.57 h | – | 3.5 h | – | – | – |
| MKILLAALTSSFMLVGCTPRIEVAAPKEPITINMNVKIEHEIIIKADKDVEELLETRSDLF | 7.04 ± 0.68 h | – | 5.661 ± 0.018 h | – | 12 ± 1.4 h | – | 13.6 ± 1.1 h | – | 12.9 ± 0.47 h | – | 3.15 ± 0.11 h | 6.88 ± 0.2 h |
| MKILVIGPSWVGDMMMSQSLYRTLQARYPQAIIDVMAPAWCRPLLSRMPEVNEAIPMPLGHGALEIGERRKLGHSLREKRYDRAYVLPNSFKSALVPFFAGIPHRTGWRGEMRYGLLNDVRVLDKEAWPLMVERYIALAYDKGIMRTAQDLPQPLLWPQLQVSEGEKSYTCNQFSLSSERPMIGFCPGAEFGPAKRWPHYHYAELAKQLIDEGYQVVLFGSAKDHEAGNEILAALNTEQQAWCRNLAGETQLDQAVILIAACKAIVTNDSGLMHVAAALNRPLVALYGPSSPDFTPPLSHKARVIRLITGYHKVRKGDAAEGYHQSLIDITPQRVLEELNALLLQEEA | 6.06 ± 0.088 h | 6.69 ± 0.98 h | 6.11 ± 0.48 h | 5.58 ± 0.14 h | 11.7 ± 2.8 h | 6.4 ± 0.97 h | 11.1 ± 1.8 h | 6.54 ± 0.24 h | 11.7 ± 1.7 h | 5.71 ± 0.23 h | 3.24 ± 0.14 h | 5.22 ± 0.11 h |
| MKILVYGINYSPELTGIGKYTGEMVEWLAAQGHEVRVITAPPYYPQWQVGENYSAWRYKREEGAATVWRCPLYVPKQPSTLKRLLHLGSFAVSSFFPLMAQRRWKPDRIIGVVPTLFCAPGMRLLAKLSGARTVLHIQDYEVDAMLGLGLAGKGKGGKVAQLATAFERSGLHNVDNVSTISRSMMNKAIEKGVAAENVIFFPNWSEIARFQHVADADVDALRNQLDLPDNKKIILYSGNIGEKQGLENVIEAADRLRDEPLIFAIVGQGGGKARLEKMAQQRGLRNMQFFPLQSYDALPALLKMGDCHLVVQKRGAADAVLPSKLTNILAVGGNAVITAEAYTELGQLCETFPGIAVCVEPESVEALVAGIRQALLLPKHNTVAREYAERTLDKENVLRQFINDIRG | 4.84 h | – | 5.37 h | – | – | – | – | – | – | – | – | – |
